# Measured values taken from paper PMC6370856, “Peptidyl prolyl cis/trans isomerase activity on the cell surface correlates with extracellular matrix development” (Communications Biology, 2019).
# Tests used:
# [1] = test system: mixture of Jurkat T lymphocyte and the plasma protein fibrinogen; test: Viscosity/shear rate measurement of Jurkat cells in fibrinogen solution; type: cell-based
# Source text: Since PPIases can catalyze the dynamic rearrangement of the dense ECM polymer network, we speculated that PPIases could also affect the dynamic interaction between cells and the ECM. Probing the influence of transient prolyl isomerization on cell–ECM interaction is difficult. Studying cell adhesion by the treatment of PPIase inhibitors cannot distinguish extracellular and intracellular factors as well as receptor-mediated signaling due to the long assay time. In order to reflect the highly dynamic process, we measured the viscosity of plasma protein solution with cells. Blood is a shear-thinning non-Newtonian fluid, and its viscosity is largely affected by the interaction between cells and plasma proteins, for example, the coagulation process. We investigated whether the catalyzed isomerization could also influence the interaction between blood cells and plasma proteins, thus affecting the viscosity. We performed viscosity/shear rate measurements using a mixture of Jurkat T lymphocyte and the plasma protein fibrinogen.
# The machine used for viscosity is the same as for stiffness measurements. To 30 µL of 4 mg mL^−1 fibrinogen, an equal volume of Jurkat cells (8 × 10^7 mL^−1 in PBS, washed two times with PBS before used; Jurkat cells ocupated around 20% of the volume) was added. The mixture was pipetted up and down six times, kept on ice for 10 min, and then transferred to the rheometer plater (25 °C) for measurements. The plate temperature was raised to 37 °C. The measurement was performed by increasing shear rate ramp liner from 100 to 1000 s^−1. Hundred data points were collected during the measurements. For each condition, two independent experiments were performed (Fig. 1c and Supplementary Fig. 3).
# Jurkat cells [2] = test: Stability of DNA-conjugated compounds under Jurkat cell treatment (LC/MS); type: in vitro ADME; conditions: CsA-DNA 500 nM, SLF-DNA 1000 nM, two independent experiments
# Experimental: A designed concentration of DNA-conjugated compounds (30 µL in PBS) was incubated with 30 µL of PBS or the cell on ice for 10 min, then 20 min at 37 °C, which is much longer then the viscosity assay time. All the samples were centrifuged at 1000 rpm for 3 min, and then, 30 µL of the supernatant was transferred to MS tube for LC/MS analysis (Supplementary Fig. 4).
# Jurkat cells [3] = test: Cellular uptake of TAMRA compounds by Jurkat cells (flow cytometry); type: cell-based; conditions: 100 nM TAMRA compounds, 1 and 24 hours, compared with Cs9-TAMRA
# Experimental: A final concentration of 100 nM DNA-conjugated TAMRA compounds and Cs9TAMRA was incubated with Jurkat cells for 1 h or 24 h, the cells were pelleted by centrifugation at 1000 rpm for 5 min, the pellet was washed one time with fluorescent-activated cell sorting (FACS) buffer (PBS with 1% bovine serum albumin), and resuspended in FACS buffer. BD FACS Canto™ II Flow Cytometer was used to analyze the uptake of these compounds by Jurkat cells (Supplementary Fig. 5).
# [4] = PPIase activity of His-CypB immobilized on Ni-NTA silica; type: biochemical; conditions: 25 pmol immobilized on Ni-NTA silica showed a similar activity to 1 pmol free control
# Experimental: Ten microliters of His-CypB (2.5 µM, 2 µM, 1.5 µM, and 1 µM) was incubated with 10 µL of settled Ni-NTA macroporous silica (Ni-NTA Spin Kit; Qiagen) for 30 min at 0 °C. Subsequently, 80 µL of HEPES buffer was added and incubated for another 10 min with gentle shaking. The silica was precipitated by gravity for 10 min. Eighty microliters were taken from the supernatant and measured along with the silica fraction (the remaining 20 µL) for PPIase activity. The amounts of CypB in the wells were 25, 20, 15, and 10 pmol. Additionally, the activity of 10 µL of 100 nM His-CypB in solution was measured. Three independent experiments were performed. The result is shown in Supplementary Fig. 9.
substance,measurement,setting,value
"CsA-DNA: CsA-conjugated oligonucleotide, 5-amino modifier C6-CTCTTCCGATCTC (chemistry not fully specified)",effect on viscosity of cell/fibrinogen mixture,"[1]; Jurkat T lymphocyte and fibrinogen, shear rate 100-1000 s^-1",reduced viscosity
same,Viscosity Mean,[1]; shear rate 102 s-1,3.276 mPa·s
same,Viscosity Mean,[1]; shear rate 112 s-1,2.725 mPa·s
same,Viscosity Mean,[1]; shear rate 122 s-1,2.3889 mPa·s
same,Viscosity Mean,[1]; shear rate 132 s-1,2.173 mPa·s
same,Viscosity Mean,[1]; shear rate 142 s-1,1.975 mPa·s
same,Viscosity Mean,[1]; shear rate 152 s-1,1.931 mPa·s
same,Viscosity Mean,[1]; shear rate 162 s-1,1.858 mPa·s
same,Viscosity Mean,[1]; shear rate 173 s-1,1.71 mPa·s
same,Viscosity Mean,[1]; shear rate 183 s-1,1.682 mPa·s
same,Viscosity Mean,[1]; shear rate 193 s-1,1.63 mPa·s
same,Viscosity Mean,[1]; shear rate 203 s-1,1.558 mPa·s
same,Viscosity Mean,[1]; shear rate 253 s-1,1.438 mPa·s
same,Viscosity Mean,[1]; shear rate 263 s-1,1.4013 mPa·s
same,Viscosity Mean,[1]; shear rate 284 s-1,1.361 mPa·s
same,Viscosity Mean,[1]; shear rate 304 s-1,1.331 mPa·s
same,Viscosity Mean,[1]; shear rate 334 s-1,1.301 mPa·s
same,Viscosity Mean,[1]; shear rate 344 s-1,1.29 mPa·s
same,Viscosity Mean,[1]; shear rate 354 s-1,1.29 mPa·s
same,Viscosity Mean,[1]; shear rate 364 s-1,1.269 mPa·s
same,Viscosity Mean,[1]; shear rate 374 s-1,1.245 mPa·s
same,Viscosity Mean,[1]; shear rate 384 s-1,1.237 mPa·s
same,Viscosity Mean,[1]; shear rate 395 s-1,1.237 mPa·s
same,Viscosity Mean,[1]; shear rate 415 s-1,1.212 mPa·s
same,Viscosity Mean,[1]; shear rate 425 s-1,1.198 mPa·s
same,Viscosity Mean,[1]; shear rate 475 s-1,1.142 mPa·s
same,Viscosity Mean,[1]; shear rate 526 s-1,1.138 mPa·s
same,Viscosity Mean,[1]; shear rate 556 s-1,1.137 mPa·s
same,Viscosity Mean,[1]; shear rate 576 s-1,1.139 mPa·s
same,Viscosity Mean,[1]; shear rate 909 s-1,0.9613 mPa·s
same,Viscosity Mean,[1]; shear rate 919 s-1,1.096 mPa·s
same,Viscosity Mean,[1]; shear rate 929 s-1,0.9906 mPa·s
same,Viscosity Mean,[1]; shear rate 939 s-1,0.9737 mPa·s
same,Viscosity Mean,[1]; shear rate 980 s-1,0.896 mPa·s
same,Viscosity Mean,[1]; shear rate 990 s-1,0.87 mPa·s
same,Viscosity Mean,[1]; shear rate 1000 s-1,0.9112 mPa·s
same,area of UV absorbance at 260 nm in supernatant,Jurkat cells [2]; Jurkat cell 4 X 107/mL treatment,3054±270
same,area of UV absorbance at 260 nm in supernatant,Jurkat cells [2]; PBS control,2218±11
same,cell entry / uptake by Jurkat cells,Jurkat cells [3],do not enter into cells
"His-CypB: recombinant His-tagged cyclophilin B, immobilized on Ni-NTA macroporous silica",catalytic activity of immobilized enzyme versus free enzyme in solution,[4],diminished catalytic activity
